Values belong to the binder of their own block, whether it stands above or below them.
What was measured:
[1] = biological target: T1, C3b (human, UniProt P01024 23-667; P01024 749-1663); experiment: Bio-Layer Interferometry
T1 construct: also called purified C3b

[2] = biological target: C3b

T1 sequence (P01024 23-667 limits assumed, chain 1 of 2): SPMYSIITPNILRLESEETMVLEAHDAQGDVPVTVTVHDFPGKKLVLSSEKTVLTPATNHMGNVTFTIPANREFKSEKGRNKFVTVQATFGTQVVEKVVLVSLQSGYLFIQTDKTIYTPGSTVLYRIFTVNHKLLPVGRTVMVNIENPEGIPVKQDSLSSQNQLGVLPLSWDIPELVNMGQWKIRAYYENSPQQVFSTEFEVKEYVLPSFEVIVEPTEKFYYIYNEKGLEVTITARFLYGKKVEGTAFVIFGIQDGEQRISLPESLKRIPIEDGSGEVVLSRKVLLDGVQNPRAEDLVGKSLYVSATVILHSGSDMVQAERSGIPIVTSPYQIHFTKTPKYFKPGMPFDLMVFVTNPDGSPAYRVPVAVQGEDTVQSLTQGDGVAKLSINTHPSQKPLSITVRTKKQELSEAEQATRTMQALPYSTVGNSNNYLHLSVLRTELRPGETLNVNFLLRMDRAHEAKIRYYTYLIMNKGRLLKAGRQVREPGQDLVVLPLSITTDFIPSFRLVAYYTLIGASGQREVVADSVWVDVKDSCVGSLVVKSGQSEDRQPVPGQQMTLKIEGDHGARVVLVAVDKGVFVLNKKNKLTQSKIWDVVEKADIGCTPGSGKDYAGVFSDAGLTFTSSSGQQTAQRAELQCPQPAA
T1 sequence (P01024 749-1663 limits assumed, chain 2 of 2): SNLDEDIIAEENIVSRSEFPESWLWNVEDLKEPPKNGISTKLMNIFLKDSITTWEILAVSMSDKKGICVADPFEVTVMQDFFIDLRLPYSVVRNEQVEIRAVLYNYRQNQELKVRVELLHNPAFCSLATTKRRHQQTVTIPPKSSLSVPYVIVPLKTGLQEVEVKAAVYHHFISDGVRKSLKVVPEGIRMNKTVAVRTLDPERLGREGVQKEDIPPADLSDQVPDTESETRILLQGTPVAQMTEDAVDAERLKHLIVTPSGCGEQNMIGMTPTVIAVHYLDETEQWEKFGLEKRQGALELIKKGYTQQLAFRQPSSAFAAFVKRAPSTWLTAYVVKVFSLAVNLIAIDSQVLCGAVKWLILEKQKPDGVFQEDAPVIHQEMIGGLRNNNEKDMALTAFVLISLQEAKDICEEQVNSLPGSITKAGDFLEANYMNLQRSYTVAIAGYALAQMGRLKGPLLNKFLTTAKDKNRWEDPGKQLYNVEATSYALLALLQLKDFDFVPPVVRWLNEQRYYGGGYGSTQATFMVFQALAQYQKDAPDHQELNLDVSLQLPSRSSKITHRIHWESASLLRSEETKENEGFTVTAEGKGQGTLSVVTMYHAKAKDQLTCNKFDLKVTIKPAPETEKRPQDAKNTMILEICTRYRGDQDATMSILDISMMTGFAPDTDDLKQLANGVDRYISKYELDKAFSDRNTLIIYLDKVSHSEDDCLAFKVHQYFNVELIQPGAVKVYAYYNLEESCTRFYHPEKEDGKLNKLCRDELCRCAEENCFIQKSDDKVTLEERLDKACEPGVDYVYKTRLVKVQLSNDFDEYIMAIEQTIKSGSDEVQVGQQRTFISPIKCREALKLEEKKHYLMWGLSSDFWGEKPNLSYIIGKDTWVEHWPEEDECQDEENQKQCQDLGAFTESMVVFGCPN

Kd [1]: 1170 nM
B1: Complement Factor H isoform FHL-1 (other)
chain: EDCNELPPRRNTEILTGSWSDQTYPEGTQAIYKCRPGYRSLGNVIMVCRKGEWVALNPLRKCQKRPCGHPGDTPFGTFTLTGGNVFEYGVKAVYTCNEGYQLLGEINYRECDTDGWTNDIPICEVVKCLPVTAPENGKIVSSAMEPDREYHFGQAVRFVCNSGYKIEGDEEMHCSDDGFWSKEKPKCVEISCKSPDVINGSPISQKIIYKENERFQYKCNMGYEYSERGDAVCTESGWRPLPSCEEKSCDNPYIPNGDYSPLRIKHRTGDEITYQCRNGFYPATRGNTAKCTSTGWIPAPRCTLKPCDYPDIKHGGLYHENMRRPYFPVAVGKYYSYYCDEHFETPSGSYWDHIHCTQDGWSPAVPCLRKCYFPYLENGYNQNYGRKFVQGKSIDVACHPGYALPKAQTTVTCMENGWSPTPRCIRVSFTL
notes: Positive control in the BLI assay; also called factor H-like protein 1

Kd [1]: 5.21 nM
B3: glycosylated chimeric FH-FI polypeptide (other)
chain: GSSGEDCNELPPRRNTEILTGSWSDQTYPEGTQAIYKCRPGYRSLGNIIMVCRKGEWVALNPLRKCQKRPCGHPGDTPFGTFTLTGGNVFEYGVKAVYTCNEGYQLLGEINYRECDTDGWTNDIPICEVVKCLPVTAPENGKIVSSAMEPDREYHFGQAVRFVCNSGYKIEGDEEMHCSDDGFWSKEKPKCVEISCKSPDVINGSPISQKIIYKENERFQYKCNMGYEYSERGDAVCTESGWRPLPSCEEGGGGSRGGGGSGGGGSIVGGKRAQLGDLPWQVAIKDASGITCGGIYIGGCWILTAAHCLRASKTHRYQIWTTVVDWIHPDLKRIVIEYVDRIIFHENYNAGTYQNDIALIEMKKDGNKKDCELPRSIPAAVPWSPYLFQPNDTCIVSGWGREKDNERVFSLQWGEVKLISNCSKFYGNRFYEKEMECAGTYDGSIDACKGDSGGPLVCMDANNVTYVWGVVSWGENCGKPEFPGVYTKVANYFDWISYHVGRPFISQYNV
modifications: N-glycans on the Complement Factor I proteolytic domain (glycosylated form)
notes: It consists of the Factor H co-factor region (CCPs 1-4), a G4S-R-(G4S)2 linker and the Factor I proteolytic domain; also called Chimera

Kd [1]: 47.6 nM
B4: deglycosylated chimeric FH-FI polypeptide (other)
chain: B3 chain
modifications: N-glycans removed with PNGase F under non-denaturing conditions
notes: It is not the N464Q/N494Q/N536Q mutant; also called dFH-FI; dChimera

Further lines, the binder ahead of its results:

B2: Complement Factor H (other)
chain: EDCNELPPRRNTEILTGSWSDQTYPEGTQAIYKCRPGYRSLGNVIMVCRKGEWVALNPLRKCQKRPCGHPGDTPFGTFTLTGGNVFEYGVKAVYTCNEGYQLLGEINYRECDTDGWTNDIPICEVVKCLPVTAPENGKIVSSAMEPDREYHFGQAVRFVCNSGYKIEGDEEMHCSDDGFWSKEKPKCVEISCKSPDVINGSPISQKIIYKENERFQYKCNMGYEYSERGDAVCTESGWRPLPSCEEKSCDNPYIPNGDYSPLRIKHRTGDEITYQCRNGFYPATRGNTAKCTSTGWIPAPRCTLKPCDYPDIKHGGLYHENMRRPYFPVAVGKYYSYYCDEHFETPSGSYWDHIHCTQDGWSPAVPCLRKCYFPYLENGYNQNYGRKFVQGKSIDVACHPGYALPKAQTTVTCMENGWSPTPRCIRVKTCSKSSIDIENGFISESQYTYALKEKAKYQCKLGYVTADGETSGSITCGKDGWSAQPTCIKSCDIPVFMNARTKNDFTWFKLNDTLDYECHDGYESNTGSTTGSIVCGYNGWSDLPICYERECELPKIDVHLVPDRKKDQYKVGEVLKFSCKPGFTIVGPNSVQCYHFGLSPDLPICKEQVQSCGPPPELLNGNVKEKTKEEYGHSEVVEYYCNPRFLMKGPNKIQCVDGEWTTLPVCIVEESTCGDIPELEHGWAQLSSPPYYYGDSVEFNCSESFTMIGHRSITCIHGVWTQLPQCVAIDKLKKCKSSNLIILEEHLKNKKEFDHNSNIRYRCRGKEGWIHTVCINGRWDPEVNCSMAQIQLCPPPPQIPNSHNMTTTLNYRDGEKVSVLCQENYLIQEGEEITCKDGRWQSIPLCVEKIPCSQPPQIEHGTINSSRSSQESYAHGTKLSYTCEGGFRISEENETTCYMGKWSSPPQCEGLPCKSPPEISHGVVAHMSDSYQYGEEVTYKCFEGFGIDGPAIAKCLGEKWSHPPSCIKTDCLSLPSFENAIPMGEKKDVYKAGEQVTYTCATYYKMDGASNVTCINSRWTGRPTCRDTSCVNPPTVQNAYIVSRQMSKYPSGERVRYQCRSPYEMFGDEEVMCLNGNWTEPPQCKDSTGKCGPPPPIDNGDITSFPLSVYAPASSVEYQCQNLYQLEGNKRITCRNGQWSEPPKCLHPCVISREIMENYNIALRWTAKQKLYSRTGESVEFVCKRGYRLSSRSHTLRTTCWDGKLEYPTCAKR
notes: Positive control in the BLI assay; also called FH
Kd [1]: 583 nM

B5: Complement Factor I (protein)
chain 1: KVTYTSQEDLVEKKCLAKKYTHLSCDKVFCQPWQRCIEGTCVCKLPYQCPKNGTAVCATNRRSFPTYCQQKSLECLHPGTKFLNNGTCTAEGKFSVSLKHGNTDSEGIVEVKLVDQDKTMFICKSSWSMREANVACLDLGFQQGADTQRRFKLSDLSINSTECLHVHCRGLETSLAECTFTKRRTMGYQDFADVVCYTQKADSPMDDFFQCVNGKYISQMKACDGINDCGDQSDELCCKACQGKGFHCKSGVCIPSQYQCNGEVDCITGEDEVGCAGFASVTQEETEILTADMDAERRRIKSLLPKLSCGVKNRMHI
chain 2: IVGGKRAQLGDLPWQVAIKDASGITCGGIYIGGCWILTAAHCLRASKTHRYQIWTTVVDWIHPDLKRIVIEYVDRIIFHENYNAGTYQNDIALIEMKKDGNKKDCELPRSIPACVPWSPYLFQPNDTCIVSGWGREKDNERVFSLQWGEVKLISNCSKFYGNRFYEKEMECAGTYDGSIDACKGDSGGPLVCMDANNVTYVWGVVSWGENCGKPEFPGVYTKVANYFDWISYHVGRPFISQYNV
C3b alpha-chain breakdown (Instant Blue stained gel), with FHL-1 as co-factor [2]: It was possible to observe the breakdown of the α-chain of C3b in the presence of FHL-1 and FI

Reference: patent publication US20200277360A1 (UNIVERSITY OF MANCHESTER, published 2020)
